# Experimental data taken from paper doi:10.1101/2020.09.15.299115.
# How the values were obtained:
# mCherry-FKBP-Ubc9 [1] = biological target: mCherry-FKBP-Ubc9 (UniProt P63279)
# mCherry-FKBP-Ubc9 [2] = biological target: mCherry-FKBP-Ubc9 (UniProt P63279); test: partitioning into condensates
Molecule,KM of SUMOylation of RanGAP* (no scaffolds) (mCherry-FKBP-Ubc9 [1]) [µM],fold concentration in droplets (mCherry-FKBP-Ubc9 [2]) [fold]
"FKBP-EGFP-RanGAP* (RanGAP C-terminal domain 398-587, F562A) (from UniProt P46060 398-587) (domain or fragment)",70,–
E1-EGFP (SAE1/2 heterodimer) (complex) chain 1: MVEKEEAGGGISEEEAAQYDRQIRLWGLEAQKRLRASRVLLVGLKGLGAEIAKNLILAGVKGLTMLDHEQVTPEDPGAQFLIRTGSVGRNRAEASLERAQNLNPMVDVKVDTEDIEKKPESFFTQFDAVCLTCCSRDVIVKVDQICHKNSIKFFTGDVFGYHGYTFANLGEHEFVEEKTKVAKVSQGVEDGPDTKRAKLDSSETTMVKKKVVFCPVKEALEVDWSSEKAKAALKRTTSDYFLLQVLLKFRTDKGRDPSSDTYEEDSELLLQIRNDVLDSLGISPDLLPEDFVRYCFSEMAPVCAVVGGILAQEIVKALSQRDPPHNNFFFFDGMKGNGIVECLGPK chain 2: MALSRGLPRELAEAVAGGRVLVVGAGGIGCELLKNLVLTGFSHIDLIDLDTIDVSNLNRQFLFQKKHVGRSKAQVAKESVLQFYPKANIVAYHDSIMNPDYNVEFFRQFILVMNALDNRAARNHVNRMCLAADVPLIESGTAGYLGQVTTIKKGVTECYECHPKPTQRTFPGCTIRNTPSEPIHCIVWAKYLFNQLFGEEDADQEVSPDRADPEAAWEPTEAEARARASNEDGDIKRISTKEWAKSTGYDPVKLFTKLFKDDIRYLLTMDKLWRKRKPPVPLDWAEVQSQGEETNASDQQNEPQLGLKDQQVLDVKSYARLFSKSIETLRVHLAEKGDGAELIWDKDDPSAMDFVTSAANLRMHIFSMNMKSRFDIKSMAGNIIPAIATTNAVIAGLIVLEGLKILSGKIDQCRTIFLNKQPNPRKKLLVPCALDPPNPNCYVCASKPEVTVRLNVHKVTVLTLQDKIVKEKFAMVAPDVQIEDGKGTILISSEEGETEANNHKKLSEFGIRNGSRLQADDFLQDYTLLINILHSEDLGKDVEFEVVGDAPEKVGPKQAEDAAKSITNGSDDGAQPSTSTAQEQDDVLIVDSDEEDSSNNADVSEEERSRKRKLDEKENLSAKRSRIEQKEELDDVIALD,–,1.9
